Assay results published in the supplement of paper PMC9170038.

Test system: MS2 coat protein
Experiment: apparent KD of MS2 coat protein; designed switch direction (-1 OFF switch, 1 ON switch): 1; higher = weaker reporter binding
Procedure, shortened: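 SNAP-549-labelled MS2 coat protein was titrated, doubling from 0.7 or 1.5 nM to 3 µM, over designed RNA switches transcribed on Illumina chips by stalled E. coli RNA polymerase. Runs were done without input, with 200 uM small-molecule ligand, or with an oligonucleotide input. Apparent KD is the per-design median over clusters of curve-fitted normalised fluorescence.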

[1] = Eterna round: R95, input ligand: FMN 200 uM
[2] = Eterna round: R95, input ligand: microRNA oligo, concentration not stated
[3] = Eterna round: R95, input ligand: none
[4] = input ligand: microRNA oligo, concentration not stated

| Sequence | apparent KD of MS2 coat protein [1] [nM] | apparent KD of MS2 coat protein [2] [nM] | apparent KD of MS2 coat protein [3] [nM] | apparent KD of MS2 coat protein (input ligand: FMN 200 uM) [nM] | apparent KD of MS2 coat protein [4] [nM] | apparent KD of MS2 coat protein (input ligand: none) [nM] |
| --- | --- | --- | --- | --- | --- | --- |
| AGAAAACAUGAGGAUCACCCAUGUAUAGUGAAUACAGGAUAUCACCGGCUGAAAAGCCGGUGAGAAGGGUGAUCGC [Atorenri] (puzzle: Same State 1) | 149 | 18.6 | 7.7 |  |  |  |
| AGAAGGAGAGCGCAGGAUAUCGAUAAUGACACAUGAGGAUCACCCAUGUUUGGUAUUAGAAGGAACGAGAAGGGUGAAAGGAGAA [knee_arm_01] (puzzle: Same State 2) | 59.2 | 59.8 | 116 |  |  |  |
| AGACACAUGAGGAUCACCCAUGUCAUGAGCUUAGCUCGGGCACAGGAUAUCCGGUCCUAGAGACCGGAGAAGGGUGGCCGAAAA [Zara MOD] (Eterna round: R96, puzzle: Same State NG 3) |  |  |  | 396 | 323 | 670 |
| AGAGCCGGCACCGAGGAUAUUCAUAUUAAAACAUGAGGAUCACCCAUGUAGGCCAGAAGGCCUUGGGAGAAGGCGGAUCGGCUCG [Xeonanis - 7] (Eterna round: R96, puzzle: Same State 2) |  |  |  | 32.5 | 335 | 559 |
| AGAGCCGGCACCGAGGAUAUUCAUAUUAAAACAUGAGGAUCACCCAUGUAGGCCAGAAGGCCUUGGGAGAAGGCGGAUCGGCUCG [Xeonanis - 7] (puzzle: Same State 2) | 28.3 | 524 | 827 |  |  |  |
| AGAGUGUAUCCACAGGAUAUGCGAGCUGACACAUGAGGAUCACCCAUGUAGUCCUAAAGGGCUGAGCAGAAGGGUGGUAAAGCUC [Raesvelave] (puzzle: Same State 2) | 12.9 | 44.2 | 53.6 |  |  |  |
| AGAUGUUAAUUAGGAUAUGGACACAUGAGGAUCACCCAUGUAACGAAGAUACGAUGUGGUCAAGUCUAGAAGGGAUCGCUAACA [SameState NG2 #74] (Eterna round: R96, puzzle: Same State NG 2) |  |  |  | 38.1 | 26.9 | 36.6 |
| AGAUGUUAAUUAGGAUAUGGGCACAUGAGGAUCACCCAUGUAACGUAGAUACGAUGUGGUCAAGUCUAGAAGGGAUAGCUAACA [SameState NG2 #77] (Eterna round: R96, puzzle: Same State NG 2) |  |  |  | 72.5 | 59.3 | 70.6 |
| AGCAGAGAAAUAGGAUAUGGCUGAGACAUGACGGCGGUACAUGAGGAUCACCCAUGUCCGCAAAGCCAGAAGGGUUUUGAAUGU [Ticecexe] (Eterna round: R96, puzzle: Same State NG 2) |  |  |  | 13.7 | 16.5 | 33.4 |
| AGCCGAGACUGAGGAUAUUUGUAUCUACAUGAGGAUCACCCAUGUAGCAACACGUGGUAGUGAUCGAAGAAGGCAGCUCGGCGC [MOD2 of Omei's SS(NG)2 Cv2] (Eterna round: R96, puzzle: Same State NG 2) |  |  |  | 54 | 282 | 291 |
| AGCCUGAGUCGAGGAUAUUAUGGAUCAAUUAAUACAUGAGGAUCACCCAUGUAAUUAAUUUAACAUGAGAAGGUGACUCAGGCA [SSNG2/10-B1] (Eterna round: R96, puzzle: Same State NG 2) |  |  |  |  | 8.66 |  |
| AGCGAGAUAGGCAAGGAUAUGCUGGGUUUCACAUGAGGAUCACCCAUGUCAUUGGUUAUGUCCGAGCAGAAGGUGCAUUCUCUUU [ak bound state multiloop solution 2] (puzzle: Same State 2) |  | 250 |  |  |  |  |
| AGCUAAAACGAAGGAUAUACAAACAUGAGGAUCACCCAUGUAUACAUGAUUUAUUGUGAUCACAUGUAGAAGGUCGUACUAACA [SameState NG2 #19] (Eterna round: R96, puzzle: Same State NG 2) |  |  |  |  | 633 |  |
| AGCUAUUAAUCAGGAUAUAGGGACAUGAGGAUCACCCAUGUGUACAUGAUAAAAUGUGAUCACGUCUAGAAGGGAUUACUAACA [SameState NG2 #39] (Eterna round: R96, puzzle: Same State NG 2) |  |  |  |  | 52.5 |  |
| AGCUAUUACGAAGGAUAUUCUGACAUGAGGAUCACCCAUGUCUUCAUGAUUUAUUGUGAUCACAUGAAGAAGGUCGUACUAACA [SameState NG2 #24] (Eterna round: R96, puzzle: Same State NG 2) |  |  |  |  | 140 |  |
| AGGACGAGCACAGGAUAUCCGUGGAACAGACACGGAGAAGGGUGAAGUCAUGGAAAGAAAAGACAUGAGGAUCACCCAUGUAAA [Eszaonin] (Eterna round: R96, puzzle: Same State NG 1) |  |  |  | 132 | 61.3 | 310 |
| AGGCCACCGGAAGGAUAUGGCACCUUAUUGGUGCCAGAAGGUCCAACAUGAGGAUCACCCAUGUGGGUGGGUUCUAAUGAACAU [Fiskers NG1 - 2] (Eterna round: R96, puzzle: Same State NG 1) |  |  |  | 76.5 | 37.6 | 47.9 |
| AGGGAGGAGGCUGAGGAUAUCGUAAGGAGGACAUGAGGAUCACCCAUGUGUAUAGGAUUGGAGGACGAGAAGGCAGAGGAGUGGG [JR_SS2_Sub050] (puzzle: Same State 2) | 41.1 | 26.6 | 28.9 |  |  |  |
| AGGGUCGUGCUAGGAUAUCUAGGAUAUGGACGAGGAUUACCCGAGCAGCAUUAGCGCACCAGAGGAGAGAAGGAGCGUGAUGCG [pwkr ssNG2 2F5 2FMN.10] (Eterna round: R96, puzzle: Same State NG 2) |  |  |  | 329 | 2.76 | 63.7 |
| AGUAGUGUAACAUGAGGAUCACCCAUGUAAGAAUAUGUAACCUAGGAUAUGGAGGUUAUGUUUGACCAGAAGGAGGAUUGUUUA [JR_SSNG3_Sub041] (Eterna round: R96, puzzle: Same State NG 3) |  |  |  | 27 | 20.3 | 25.9 |
| AGUCCAGCAUAAGCUGGACAAAAGCAUGUACAUGAGGAUCACCCAUGUUCAUGUACAAGCUUUUUGCUCGUCAAAAG [Mat - hsa-mir-208a - Mod of JL - 71] (puzzle: Sensor for hsa-mir-208a) | 215 | 22.6 | 297 |  |  |  |
| AGUCCAGCCAGAGCUGGACAAAAGCAUGUACAUGAGGAUCACCCAUGUCAUGUACAAGCUUUUUGCUCGUCUUAAAA [Mat - hsa-mir-208a - Mod of JL - D2] (puzzle: Sensor for hsa-mir-208a) | 415 | 13.7 | 523 |  |  |  |
| AGUCCAGCCAGAGCUGGACAAAAGCAUGUACAUGAGGAUCACCCAUGUUCAUGUACAAGCUUUUUGCUCGUCUUAAA [Mat - hsa-mir-208a - Mod of JL - 55] (puzzle: Sensor for hsa-mir-208a) | 545 | 15 |  |  |  |  |
| AGUCCAGCCUAAGCUGGACAAAAGCAUGUACAUGAGGAUCACCCAUGUUCAUGUACAAGCUUUUUGCUCGUCUUAAA [Mat - hsa-mir-208a - Mod of JL - 54] (puzzle: Sensor for hsa-mir-208a) | 544 | 15.1 | 447 |  |  |  |
